Assay results: patent CN114075280A (DONGGUAN PENGZHI BIOTECHNOLOGY CO LTD, dated 2022)

Target: NGAL抗原 (中性粒细胞明胶酶相关载脂蛋白, Neutrophil gelatinase-associated lipocalin) (UniProt P80188 21-198)
Experiment: BLI, antibody captured on AMC sensor, NGAL in solution

NGAL抗原 (中性粒细胞明胶酶相关载脂蛋白, Neutrophil gelatinase-associated lipocalin), sequence (P80188 21-198 limits assumed): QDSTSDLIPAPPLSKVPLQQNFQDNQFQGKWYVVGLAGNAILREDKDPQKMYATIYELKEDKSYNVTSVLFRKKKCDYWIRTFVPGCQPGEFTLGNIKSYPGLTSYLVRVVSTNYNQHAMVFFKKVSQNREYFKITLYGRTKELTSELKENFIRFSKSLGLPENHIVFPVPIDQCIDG

Kd: 14.8 nM
koff: 0.000313 s⁻¹
kon: 21200 M⁻¹ s⁻¹
B1: 实施例1的抗NGAL单克隆抗体(WT) (antibody, V domains shown)
VH: QIQLKESGPGLVQPSETLSLTCTVSGASVTSYSISWVRQPSGKGPEWMGRMYYNGDTLYNSVIKSRLSISRDTSKNQVFLKMNSLQTDDTGTYYCARDPILPPYFDYWGQGVMVTVSS
VL: DVQMTQSPSYLAASPGESVSISCKFSKSLSNYVAWYQQKPGEAYKLLTHSASTVQSGIPSRISGSGSGTDFTLTIRSLEPEEFGLYYCQQHYENPYTFGAGTKLELKR
